Experimental data taken from the RNAGym collection of RNA variant scans (doi:10.1073/pnas.2313332121).

B1: TPR t1 (parent)
chain: GACCAAUCUGCCCUCAGAGCUCGAGAACAUCUUCGGAUGCAGAGGAGGCAGGCUUCGGUGGCGCGAUAGCGCCAACGUCCUCAACCUCCAAUGCAUCCCACCACAUGAUGAUGCCUGAAGAGCCUUGGUUUUUUG

Variants of: B1
Experiment: polymerase ribozyme fitness, log enrichment relative to wild type (log ratio); higher = more active; in vitro selection for triplet polymerase activity
How it was run: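 Mutant libraries for each subunit of a heterodimeric triplet polymerase ribozyme were made by PCR and then transcribed. Each library underwent one round of in vitro selection in triplicate: annealing with a biotinylated primer, the partner subunit and triplets, frozen incubation at −7 °C, gel excision of extended constructs, streptavidin-bead capture and RT-PCR. Input and output libraries were Illumina-sequenced, and only genotypes with ≥10 input reads and ≥1 read per output were kept. Fitness is the logarithm, base 2, of genotype enrichment over wild-type enrichment, computed from inverse-variance-weighted replicate averages.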

| Variant | polymerase ribozyme fitness (log ratio) |
| --- | --- |
| GACCAAUCUGCCCUCAGAGCUCGAGAACAUCUUCGGAUGCAGAGGAGGCAGGCUUCGGUGGCGCGAUAGCGCCAACGUUUUCAACCUCCAAUGCAUCCCACCACAUGAUGAUGCCUGAAGAGCCUUGGUUUUUUG [C79U C80U] | -2.32 |
| GACCAAUCUGCCCUCAGAGCUCGAGAACAUCUUCGGAUGCAGAGGAGGCAGGCGUCGGUGGCGCGAUAGCGCCAACGUCCUCAACCUCCAAUGCAUCCCACCACAUGAUGAUGCCUGAAGGGCCUUGGUUUUUUG [U54G A121G] | 1.62 |
| GACCAAUCUGCCCUCAGAGCUCGAGAACUUCUUCGGAUGCAGAGGAGGCAGGCUUCGGUGACGCGAUAGCGCCAACGUCCUCAACCUCCAAUGCAUCCCACCACAUGAUGAUGCCUGAAGAGCCUUCGUUUUUUG [A29U G61A G127C] | -3.2 |
| GACCAAUCUGACCUCAGAGCUCGAGAACAUCUUCGGAUUCAGAGGAGGCAGGCUUCGGUGGCGCGAUAGCACCAACGUCCUCAACCUCCAAUGCAUCCCACCACAUGAUGAUGCCUGAAGAGCCUUGGUUUUUUG [C11A G39U G71A] | -2.63 |
| GACCAAUCUGCCCUCAGAGCUCGAGAACAUCUUCGGAUGCAGAGGAGGCAGGCUUCGGUGGCGUGAUAGCGCCAACGUCCUCAACCUCCAAUGCAUCCCACCACAUGAUGCUGCAUGAAGAGCCUUGGUUUUUUG [C64U A111C C115A] | -4.52 |
| GACCAAUCUGCCCUCAGAGCUCGAGAACAUCUUCGGUUGCAGAGGAGGCAGGCUUCGGUGGCGCGAUAGCGCCAACGUCCUCAACCUCCAAUGCAUCCCACCACAUGAUGAUGCCUGAAGCGCCUGGUUUUUUUG [A37U A121C U126G G128U] | 0.977 |
| GACCAAUCUGCCCUCAGAGCUCGAGAACAUCUUCGGAUGCAGAGGAGUCAGGCUUCGGUGGCGCGAUAGCGCCAACGUCCUCAACCUCCAAUGCAUCCCACCACAUGAUGAUGCCCGAAGAGCCUUGGUUUUUUG [G48U U116C] | -1.64 |
| GACCAAACUGCCCUCAGAGCUCGAGAACAUCUUCGGAUGCAGAGGAGGCAGGCUUCGGUGGCGCGAUACCGCCAACGUCCUCAACCUCCAAUGCAUCCCACCACAUGAUGAUGCAUGAAGAGCCUUGGUUUUUUG [U7A G69C C115A] | 0.0666 |
| GACCAAUCUGCCAUCACAGCUCGAGAACAUCUUCGGAUGCAGAGGAGGCAGGCUUCGGUGGCGCGAUAGCGUCAACGUCCUCAACCUUCAAUGCAUCCCACCACAUGAUGAUGCCUGAAGGGCCUUGGUUUUUUG [C13A G17C C72U C88U A121G] | -2.21 |
| GACCAAGCUGCCCUCAGAGCUCGAGAACAUCUUCGGAUGCUGAGGAGGCAGGCUUCGGGGGCGCGAUAGCGCUAACGUCCUCAACCUCCAAUGCAUCCCACCACAUGAUGAUGCCUGAAGCGCCUUGGUUUUUUG [U7G A41U U59G C73U A121C] | 0.0183 |
| GACCAAUCUGCCCUCAGAGCUCGAGAACAUCUUCGGAUGCAGAGGAGGCAGGCUUCGGUGGCGCGAUAGCGCCAACGUCCUCAUCCUCCAAUGCAUCCCACCACAUGAUGAUGCCUGAAGAGCCUUGGUUUUUUU [A84U G135U] | -1.03 |
| GACCAAUCUGGCCUCAGAGCUCGAGAACAUCUUCAGAUGCAGAGGAGGCAGGCUUCGGUGGCGCGAUACCGCCAACGUCCUCAACCUCCAAUGCAUCUCACCACAUGAUGAUGCCUGAAGAGCCUUGGUUUUUUG [C11G G35A G69C C98U] | -1.46 |
| GACCAAUCUGCCAUCAGAGCUCGAGAACAUCUUCGGAUGCAGAGGAGGCAGGCUUCGGUGGCGCGAUAGGGCCAACGUCCUCAACCUCCAAUGCAUCCCACCACAUGAUGAUGCCUGAAGAGCCUUGGUUUUUUG [C13A C70G] | -3.31 |
| GACCAAUCUGCCCUCAGAGCUCGAGAACAUCUUCGGCUGCAGAGGAGGCAGGCUUCGGUGGCGCGAUAGCGGCAACGUCCUCAACCUCCAAUGCAUCCCACCACAUGAUGAUGCCUGAAGAGGCUUGGUUUUUUG [A37C C72G C123G] | 0.506 |
| GACCAAUCUGCCCUCAGAGCUCGAGAACAUCUUCGGAUGCAGAGGAGGCAGGCUUGGGUGGCGCGAUAGCGCCAACGUACUCAACCUCCAAUGCAUCCCACCACAUGAUGAUGCAUGAAGAGCCUUGGUUAUUUG [C56G C79A C115A U131A] | -0.673 |
| GCCGAAUCUGCCCUCAGAGCUCGAGAACAUCUUCGGAUGCAGAGGAGGCACGCUUCGGUGGCGCGAUAGCGCCAACGUCCUCAACCUCCAAUGCAUCCCAACACAUGAUGAUGCCUGAAGAGCCUUGGUUUUUUG [A2C C4G G51C C101A] | -6.08 |
| GACCAAUCUGCUCUCAGAGGUCGAGAACAUCUUCGGAUGCAGAGGAGGCAGGCUUCGGUGGCGCGAUAGCGCCAACGUCCUCAACCUCCAAUGCAUCCCACCACACGAUGAUGCCUGAAGAGCCUUGGUUUUUUG [C12U C20G U106C] | -3.81 |
| GACCAAUCUGCUCUCAGAGCUCGAGAACAUCUUCGGAUGCAUAGGAGGCAGUCUUCGGUGGCGCGUUAGCGUCAACGUCCUCAACCUCCAAUGCAUCCCACCACAUGAUGAUGCAUAAAGAGCCUUGGUUUUUUG [C12U G42U G52U A66U C72U C115A G117A] | -6.98 |
| GACCAAUCUGCCCUCAGAGCUCGAGAACAUCUUCGGAUGCAGAGGAGGCAGGCUUCGGUGGAGCGAUAGCGCCAACGCCCUCAACCUCCAAUGCAUCCCACCACAUGAUGAAGCCAGAAGAGCCUUGGUUUUUUG [C62A U78C U112A U116A] | -3.11 |
| GACCAAUCUGCCCUCAGAGCUCGAGAACAUCUUCGGAUGCAGAGGAGGCAGGCUUCGGUGGCGCGAUAGCGCCAACGUCCUCAACCUCCAAUGCAUGCCACCACAUGAUGAUGCGUGAACAGCCUUGGUUUUUUG [C97G C115G G120C] | -5.54 |
| GACCAAUCAGCCCUCAGAGCUCGAGAACAUCUUCGGAUGCAGAGGAGGUAGGCUUCGGUGGCGCGAUAGCGCCAACGUCCUCAACCUCCAAUGCAUCCCACCACAUGAUGAUGCCUGAAGAGCCUUGGUUUUUUG [U9A C49U] | -0.088 |

| Variant | polymerase ribozyme fitness (log ratio) |
| --- | --- |
| GACCGAUCUGCGCUCAGAGCUCGAGAACAUCUUUGGAUGCAGAGGAGGCAGGCUUCGGUGGCGCGAUAGCGACAACGUCCUCAACCUCCAAUGCCUCCCACCACAUGAUGAUGCCUGAAGAGCCUUGGUUUUUUG [A5G C12G C34U C72A A95C] | -5.52 |
| GACCAAUCUGCCCUCAGAGCUCGAGAACAUCUUCGGAUGCAGAGGAGUCAGGCUUCGGUGGCGCGAUAGCGCCAACGUCCUCAACCUCCAAUGCAUCCCACCACAUGAUGAUGUCUGAAGAGCCUUGGUUUUUUG [G48U C114U] | -2.73 |
| GACCAAACUGCCCUCAGAGCUCGAGAACAUCUUCGGAUGCAGAGGAGGCAGGCUUCGGUGGCGAGAUAGCGCCAACGUCCUCAACCUCCAAUGCAUCCCACCACACGAUGAUGCCUGAAGAGCCUUGGUUUUUUG [U7A C64A U106C] | -5.95 |
| GACCAAUCUGCCCUCAGAGCUCGAGAACAUCUUCGGAUGCACAGGAGGCAGUCUUCGGUCGCGCGAUAGCGCCAACGUCCUCAACCUCCAAUGCAUCCCACCACAUGAUGAUGCCUGAAGAGCCUUGGUUUUUUG [G42C G52U G60C] | -2.14 |
| GACCAAUCUGCCCUCAGAGCUCGAGAACAUCUUCGGAUGCAGAGGAGUCAGGCUUCGGUGGCGCGAUACCGCCAACGUCCUCAACCUCCAAUGCAUCCCACCACAUGAUGAUGCCUGAAGAGCCUUGGUUUUUUG [G48U G69C] | -2.22 |
| GACCAAUUUGCCCUCAGAGCUCGAGAACAUCUUCGGAUGCAGAGGAGGCAGGCUUCGGUGGCGCGAUAGCGCCAACGUCCUCAACCUCCAAUACAUCCCACCACAUGAUGAUGCCUGAAGAGCCUUGGUUUUUUG [C8U G93A] | 0.108 |
| GACCAAUCUGCCCUCAGAGCUCGAGAACAUCUUCGGAUGCAGAAGAGGCAGGCUUCGGUGGCGCGAUAGCGCCAACGUCCUCAACCUCCAAUGCAUCCCACCGCAUGAUGAUGCCUGAAGAGCCUUGGUUUUUUG [G44A A103G] | -6.14 |
| GACCAAUGUGCCCUCAGAGCUCGAGAAGAUCUUCGGAUGCAGAGGAGGCAGGCUUCGGUGGCGUGAUAGCGCCAACGUCCUCAACCUCCAAUGCAUCCCACCACAUGAUGAUGCCGGAAGGGCCUUGGUUUUUUG [C8G C28G C64U U116G A121G] | -2.9 |
| GAGCAAUCUGCCCUCAGAGCUCGAGAACAUCUUCGUAUGCAGAGGAGGCAGGCUUCGGUGGCGCGAUAGCGCCAACGUCCUCUACCUCCAAUGCAUCCCACCACAUGAUGAUGCCUGAAGAGCCUUGGUUUUUUG [C3G G36U A83U] | -3.46 |
| GACCAAUCUGCCCUCAGAGCUCGAGAACAUCUUCGGAUGCAGAGGAGGCAGUCUUCGGUGGCGCGAUAGCGCCAACGUCCUCAACCUCCAAUGCAUCCCACCACAUGAUGAUGCAUGAAGAGCCUUGGUUUUUUG [G52U C115A] | -0.782 |
| GACCAAUCUGCCCUCAGAGCUCGAGAAUAUCUUCGGAUGCAGAGGAGACAGGCUUCGGUGGCGCGAUAGCGCCAACGUCCUCAACCUCCAAUGCAUCCCACCACAUGAUGAUGCCUGAAGAGCCUUGGUUUUUUG [C28U G48A] | -3.13 |
| GACCAAUCUGCCCUCAGAGCUCGAGAACAUCUUCGGAUGCAGAGGAGGCAGGCUUCGGUGCCGCGAUAGCGCCAACGACCUCAACCUCCAAUGCAUCCCACCACAAGAUGAUGCCUGAAAAGCCUUGGUUUUUUG [G61C U78A U106A G120A] | 0.446 |
| GACCAAUCUGCCCUCAGAGCUGGAGAACAUCUUCGGAUGCAGACGAGGCAGGCUUCGGUGGCGCGAUAGCGCCAACGUCCUCAACCUCCAAUGCAUCCCACCACAUGAUGAUGCCUGAAGAGCCUUGGUUUUUUG [C22G G44C] | -4.3 |
| GACCAAUCUGCCCUCAGAGCUCGAGAACAUCUUCGGAUGCAGAGGAGGCAGGCUUCGGUGGCGCGAUAGUGCCAACGUCCUCAACCUCCAAUGCAUCCCACCACAUGAUGAUGCUUGAAGAGCCUUGGUUUUUUG [C70U C115U] | -1.84 |
| GACCAAUCUGCCCUCAGAGCUCGAGAACAUCUUCGGAUGCAGAGGAGGCAGGCUUCGGUGGCGCGGUAGCGCCAACGUCCUCCACCUCUAAUGCCUCCCACCACAUGAUGAUGCCUGAAGAGCCUUGGUUUUUUG [A66G A83C C89U A95C] | -2.97 |
| GACCAAUCUGACCUCAGAGCUCGAGAACAUCUUCGGAUGCAGAGGAGGCAGGCUUCGGUGGCGCGAUAGCGCCAACUUCCUCAACCUCCAAUGCAUCCCACCACAUGAUGAUGCCUGAAGAGCCUUGGUUUUUUG [C11A G77U] | -2.4 |
| GACCAUUCUGCCCUCAGAGCUCGAGAACAUCUUCGGAUGCAGAGGAGGCAGACUUCGGUGGCGCGAUAGCGCCAACGUCCUCAACCUCCAAUGCAUCCCACCACAUGAUGAUGCCUGAAGAGCCUUGGUUUUUUG [A6U G52A] | -2.05 |
| GACCAAUCUGCCCUCAGAGCUCGAGAACAUCUUCGGAUGCAGAGGAGGCAGGCUUCGGUGGCGCGAUAGCGCCAACGUCGUCAACCUCCAAUGCAUCCCACCACAUGAUGAAGCCUGAAGAGCCUUGGUUUUUUG [C80G U112A] | -5.14 |
| GACCAAUCUGCCCUCAGAGCUCGAGAACAUCUUCGGAUGCAGAGGAGGCAGGCUUCGGUGGCCCGAUAGCGCCAACGUCCUCAACCUCCAAUGCAUCCCACCACUUGAUGAUGCCUGAAGAGCCUUGGUUUUUUG [G63C A105U] | -2.44 |
| GACCAAUCUGCCCGCAGAGCUCGAGAACAUCUUCGGAUGCACAGGCGGCAGGUUUCGGUGGCGCGAUAGCGCCAACGUCCUCAACCUCCAAUGCAUCCCACCACAUGAUGAUGCCUGAAGAGCCUUGGUUUUUUG [U14G G42C A46C C53U] | -4.19 |
| GACCAAUCUGCCCUCAGAGCUCGAGAACAUCUUCGGAUGCAGAGGAGGCAGGCUUCGGUGGCGCGAUAGCGCCAACGUCUUCAACCUCCAACGCAUCCCACCACAUGAUGAUGCCUGAAGAGCCUUGGUUUUUUG [C80U U92C] | -2.1 |
